Reference: paper PMC3069021 (Molecular Biology of the Cell, 2011)

Target: Y925F-FAK (nonphosphorylatable mutant of FAK/YCam) (human, UniProt Q05397 1-1052, Y925F)
Experiment: co-IP

Y925F-FAK (nonphosphorylatable mutant of FAK/YCam), sequence (Q05397 whole entry Y925F): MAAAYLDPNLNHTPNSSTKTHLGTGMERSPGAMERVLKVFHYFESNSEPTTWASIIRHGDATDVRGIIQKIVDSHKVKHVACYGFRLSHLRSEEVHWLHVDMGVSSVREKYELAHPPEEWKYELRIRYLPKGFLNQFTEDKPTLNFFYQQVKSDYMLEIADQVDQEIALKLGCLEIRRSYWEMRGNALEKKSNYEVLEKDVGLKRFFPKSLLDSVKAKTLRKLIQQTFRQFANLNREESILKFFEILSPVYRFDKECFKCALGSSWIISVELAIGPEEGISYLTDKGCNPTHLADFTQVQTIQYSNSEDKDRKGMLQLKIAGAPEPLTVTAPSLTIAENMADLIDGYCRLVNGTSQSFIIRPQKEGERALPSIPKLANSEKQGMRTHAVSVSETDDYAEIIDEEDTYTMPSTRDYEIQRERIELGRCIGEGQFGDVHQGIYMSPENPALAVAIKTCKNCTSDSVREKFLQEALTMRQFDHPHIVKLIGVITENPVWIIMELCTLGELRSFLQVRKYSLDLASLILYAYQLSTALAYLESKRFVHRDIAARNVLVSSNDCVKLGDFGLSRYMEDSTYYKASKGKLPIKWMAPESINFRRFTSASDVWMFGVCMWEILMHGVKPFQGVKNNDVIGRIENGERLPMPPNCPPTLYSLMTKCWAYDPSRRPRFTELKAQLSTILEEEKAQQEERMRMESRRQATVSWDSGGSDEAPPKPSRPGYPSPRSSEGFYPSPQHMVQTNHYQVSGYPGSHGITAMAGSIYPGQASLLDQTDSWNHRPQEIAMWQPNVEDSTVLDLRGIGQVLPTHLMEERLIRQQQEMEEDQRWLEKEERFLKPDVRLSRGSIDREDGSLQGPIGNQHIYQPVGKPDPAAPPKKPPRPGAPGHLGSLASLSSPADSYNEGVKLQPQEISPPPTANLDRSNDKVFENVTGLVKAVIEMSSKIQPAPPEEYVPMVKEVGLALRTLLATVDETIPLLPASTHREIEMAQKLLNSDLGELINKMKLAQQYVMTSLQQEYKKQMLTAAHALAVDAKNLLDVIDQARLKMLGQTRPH

B1: paxillin (natural protein)
chain: not shown
  fold change of co-precipitated paxillin against wild-type FAK or Y925E-FAK: 3 fold
